Assays:
[1] = molecular target: human CD3 expressed on cells (Jurkat cells; human T-cells of PBMC) (human) (UniProt P09693); assay: cell-based or functional assay
[2] = molecular target: human CD3 expressed on cells (Jurkat cells; human T-cells of PBMC) (human) (UniProt P09693); assay: FACS titration on Jurkat cells (CD3+ human T-cell line)
[3] = molecular target: cynomolgus monkey CD3 expressed on monkey T-cells (PBMCs) (cynomolgus monkey) (UniProt Q95LI5); assay: FACS titration on monkey PBMCs, gated on CD2+CD4+ T cells
Sequence of cynomolgus monkey CD3 expressed on monkey T-cells (PBMCs) (cynomolgus monkey) (Q95LI5 22-198, chain 1 of 2): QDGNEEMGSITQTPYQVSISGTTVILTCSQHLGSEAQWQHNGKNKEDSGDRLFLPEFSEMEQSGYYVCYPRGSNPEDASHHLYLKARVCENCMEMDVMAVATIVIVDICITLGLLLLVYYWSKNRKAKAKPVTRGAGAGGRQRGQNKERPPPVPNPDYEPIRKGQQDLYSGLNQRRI
Sequence of cynomolgus monkey CD3 expressed on monkey T-cells (PBMCs) (cynomolgus monkey) (Q95LI8 22-171, chain 2 of 2, further chain): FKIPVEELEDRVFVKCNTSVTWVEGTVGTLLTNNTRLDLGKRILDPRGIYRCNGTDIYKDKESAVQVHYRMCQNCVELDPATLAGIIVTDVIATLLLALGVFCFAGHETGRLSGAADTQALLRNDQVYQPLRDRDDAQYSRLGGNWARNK

[4] = molecular target: cynomolgus monkey CD3 expressed on monkey T-cells (PBMCs) (cynomolgus monkey) (UniProt Q95LI5); assay: cell-based or functional assay

Sequence of human CD3 expressed on cells (Jurkat cells; human T-cells of PBMC) (human) (chain, as listed by the source, chain 1 of 4): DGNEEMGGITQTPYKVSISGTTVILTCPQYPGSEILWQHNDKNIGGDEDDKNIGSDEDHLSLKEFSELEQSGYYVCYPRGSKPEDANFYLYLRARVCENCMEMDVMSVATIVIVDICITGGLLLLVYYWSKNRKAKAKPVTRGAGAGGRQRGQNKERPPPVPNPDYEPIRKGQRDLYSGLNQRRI
Sequence of human CD3 expressed on cells (Jurkat cells; human T-cells of PBMC) (human) (chain, as listed by the source, chain 2 of 4): as the sequence (Q95LI8 22-171, chain 2 of 2, further chain) above, with V5I, K15N, V20I, T32S, N33D, N34I, A64T, N74S, L83V, R141H counted along it
Sequence of human CD3 expressed on cells (Jurkat cells; human T-cells of PBMC) (human) (P09693 23-182, chain 3 of 4): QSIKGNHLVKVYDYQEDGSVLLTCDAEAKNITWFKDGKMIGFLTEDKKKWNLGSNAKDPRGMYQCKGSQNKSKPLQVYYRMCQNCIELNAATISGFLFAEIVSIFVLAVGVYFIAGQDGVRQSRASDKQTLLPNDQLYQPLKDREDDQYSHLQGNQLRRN
Sequence of human CD3 expressed on cells (Jurkat cells; human T-cells of PBMC) (human) (P20963 22-164, chain 4 of 4): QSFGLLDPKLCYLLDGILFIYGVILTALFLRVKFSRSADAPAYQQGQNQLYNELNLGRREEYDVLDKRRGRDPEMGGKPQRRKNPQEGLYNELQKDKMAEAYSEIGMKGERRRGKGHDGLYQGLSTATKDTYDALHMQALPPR

“Isotype Ctrl (irrelevant isotype matched antibody, human Fc mAb tables)” showed a U937 Cytotoxicity Human T-cells [1] of 0 pM.

For “Isotype Ctrl (irrelevant isotype matched antibody, hybridoma mAb table)”, the U937 Cytotoxicity Human T-cells [1] was 0 pM.

Substance “Isotype Ctrl (irrelevant isotype matched antibody, monovalent 1-arm mAb tables)” has a U937 Cytotoxicity Human T-cells [1] of 0 pM.

“OKT-3, mouse monoclonal antibody against human T-cell surface antigens (ATCC CRL-8001)” gave an EC50 [M] hPBMC Proliferation [1] of 3.3e-13 M, a U937 Cytotoxicity Human T-cells [1] of 2.35 pM and an EC50 [2] of 0.196 nM.

“SP34, commercially available mouse monoclonal antibody reactive against the epsilon chain of the T3 complex on human T lymphocyte cells” gave an EC50 [3] of 0.0703 nM and an EC50 [M] mfPBMC Proliferation [4] of 1.71e-12 M.

Source: US20190127480A1
